Data: article PMC2696590 (2009)

B1: [^3H]-neurotensin [modified: pyroGlu at position 1; [3,11-tyrosyl-3,5-^3H(N)] (tritium on Tyr3 and Tyr11); pyroGlu at position 1; [3,11-tyrosyl-3,5-^3H(N)] (tritium on Tyr3 and Tyr11)] [not stated] / wild-type NTS1 (N-terminally truncated … (parent complex)
chain 1: not shown
chain 2: TSESDTAGPNSDLDVNTDIYSKVLVTAIYLALFVVGTVGNSVTAFTLARKKSLQSLQSTVHYHLGSLALSDLLILLLAMPVELYNFIWVHHPWAFGDAGCRGYYFLRDACTYATALNVASLSVERYLAICHPFKAKTLMSRSRTKKFISAIWLASALLAIPMLFTMGLQNRSGDGTHPGGLVCTPIVDTATVKVVIQVNTFMSFLFPMLVISILNTVIANKLTVMVHQAAEQGRVCTVGTHNGLEHSTFNMTIEPGRVQALRHGVLVLRAVVIAFVVCWLPYHVRRLMFCYISDEQWTTFLFDFYHYFYMLTNALFYVSSAINPILYNLVSANFRQVFLSTLACLCPGWRHRRKKRPTFSRKPNSMSSNHAFSTSATRETLY

Variants of: B1
Test: saturation binding assay on intact E. coli cells; intact E. coli cells
In the case of chain 2 A44L, chain 2 F316A, the Kd is reported as 0.1 nM.
